The values that follow come from patent publication US20050276800A1 (MEDICAL RESEARCH COUNCIL, published 2005).

The target of assay [1] is T1, LexA DBD (made from the empty pBTM 116 vector) (UniProt P0A7C2 1-202, limits assumed).
T1 construct: domain: LexA DBD; Bait-only control in the yeast two-hybrid assay
T1 sequence (looked up): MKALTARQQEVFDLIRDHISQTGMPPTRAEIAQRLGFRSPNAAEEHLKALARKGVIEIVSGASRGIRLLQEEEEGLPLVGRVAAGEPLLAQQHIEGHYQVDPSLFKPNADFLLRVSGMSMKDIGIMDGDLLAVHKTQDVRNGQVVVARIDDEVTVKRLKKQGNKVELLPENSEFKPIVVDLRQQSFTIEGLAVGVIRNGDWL
As to the kind of experiment: yeast two-hybrid (His growth, β-gal); data not shown.

The target in assay [2] is T2, Recombinant oncogenic HRAS (G12V; residues 1-166) (human, UniProt P01112 1-166).
T2 construct: range 1-166; ELISA and BIAcore: purified from bacteria and loaded with GppNp, a non-hydrolysable GTP analogue; Mammalian two-hybrid: codons 1-166 fused C-terminal to the GAL4 DBD (pM1-RASG12V); Yeast two-hybrid: truncated HRASG12V fused to the LexA DBD (pBTM116-RASG12V); The DBD parts are not written into the chain; also called HaRASG12V; Ha-RASG12V
As to the kind of experiment: surface plasmon resonance (BIAcore 2000), HRASG12V-GppNp immobilised at about 1500 RU, purified scFv injected.

Assay [3] addresses T2, Recombinant oncogenic HRAS (G12V; …). As to the kind of experiment: SPR (BIAcore 2000); HRASG12V-GppNp immobilised on CM5 chip, purified scFv as analyte; BIAcore, purified bacterial scFv in vitro; weak micromolar binding. On the technique in general: SPR reads the build-up and loss of mass on a sensor chip optically.

B1: anti-RAS scFv I21 (scFv)
scFv: EVQLLESGGGLVQPGGSLRLSCAASGFTFSSYAMSWVRQAPGKGLEWVSTISYGGSNTNYADSVKARFTISRDNSKNTLYLQMNSLRAEDTAVYYCAKGNNAFDYWGQGTLVTVSSGGGGSGGGGSGGGGSTDIQMTQSPSSLSASVGDRVTITCRASQSISSYLNWYQQKPGKAPKLLIYNASALQSGVPSRFSGSGSGTDFTLTISSLQPEDFATYYCQQYTSTPRTFGQGTKVEIKR
notes: also called ICAb I21
On to B1, for which, in assay [1], the binding result is on record as “no binding”. Further, in assay [2], the Kd (in general, the concentration at which binding is half-saturated) was 1310 nM; the koff (in general, the first-order rate constant of dissociation) was found to be 0.0212 s⁻¹; the kon – broadly, the rate constant with which the complex forms – worked out at 16700 M⁻¹ s⁻¹. For the same molecule, in assay [3], the Kd came to 2160 nM.
